This is an account of results in FireProtDB (doi:10.1006/jmbi.2001.4521).

B1: Growth factor receptor-bound protein 2, Q08012 (parent)
chain: MEAIAKHDFSATADDELSFRKTQILKILNMEDDSNWYRAELDGKEGLIPSNYIEMKNHDWYYGRITRADAEKLLSNKHEGAFLIRISESSPGDFSLSVKCPDGVQHFKVLRDAQSKFFLWVVKFNSLNELVEYHRTASVSRSQDVKLRDMIPEEMLVQALYDFVPQESGELDFRRGDVITVTDRSDENWWNGEIGNRKGIFPATYVTPYHS

Variants of B1 are the subject of this data set. The conditions noted are these: Drosophila melanogaster, pH 6, Thermal, CD, phosphate 50 mM, Na2SO4 0.4 M, structure 2A36, whole UniProt chain shown; for unfolding free energy: 25 °C.

Turning to T22G Q23D, the Tm came out at 88.9 °C and the “change of melting temperature, mutant - wild type (higher = more stable)” value (“change of melting temperature, mutant” below) worked out at 25.2 °C.

Regarding T22A, the unfolding free energy was found to be 2.2 kcal/mol; the Tm was determined as 66.9 °C; the “change of melting temperature, mutant” value was found to be 3.2 °C.

On to T22L, for which the Tm was 58 °C and the “change of melting temperature, mutant” value is -5.7 °C.

Regarding T22N, the unfolding free energy stood at 3.1 kcal/mol.

As for T22K, the unfolding free energy was 1.8 kcal/mol; the Tm was found to be 65 °C; the “change of melting temperature, mutant” value turned out to be 1.3 °C.

As for T22G, the unfolding free energy turned out to be 4.2 kcal/mol; the Tm was determined as 84.8 °C; the “change of melting temperature, mutant” value was 21.1 °C.

Take T22S: the unfolding free energy turned out to be 2.4 kcal/mol; the Tm worked out at 63.5 °C; the “change of melting temperature, mutant” value is -0.2 °C.

Turning to T22F, the unfolding free energy is 3.1 kcal/mol; the midpoint of thermal melting (Tm) turned out to be 66.7 °C; the “change of melting temperature, mutant” value was found to be 3 °C.

Consider T22D, for which the unfolding free energy was determined as 3.3 kcal/mol; the Tm was determined as 73.1 °C; the “change of melting temperature, mutant” value was determined as 9.4 °C.
